Data on two molecules can be found in US20190225698A1 (JIANGSU HENGRUI MEDICINE, published 2019).

Test [1] concerns the target T1, murine CD40 expressed on transfected HEK293 cells (murine, UniProt P27512 20-289).
T1 construct: whole, on cells
T1 sequence (looked up): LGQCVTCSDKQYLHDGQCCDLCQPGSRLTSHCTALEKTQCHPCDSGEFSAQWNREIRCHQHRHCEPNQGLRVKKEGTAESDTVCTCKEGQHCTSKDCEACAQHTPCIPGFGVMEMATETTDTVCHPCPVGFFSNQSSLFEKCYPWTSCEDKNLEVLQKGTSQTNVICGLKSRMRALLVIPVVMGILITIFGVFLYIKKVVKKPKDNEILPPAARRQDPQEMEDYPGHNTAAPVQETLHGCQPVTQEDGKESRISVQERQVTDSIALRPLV
The test is described as follows: flow cytometry on transfected HEK293 cells. (Flow cytometry measures light scatter and fluorescence of single cells or particles in a stream.)

Test [2] concerns the target T2, human CD137 expressed on transfected HEK293 cells (human, UniProt Q07011 24-255).
T2 construct: whole, on cells
The experiment in a line: flow cytometry on transfected HEK293 cells.

For test [3], the target named is T3, murine OX40 expressed on transfected HEK293 cells (murine, UniProt P47741 20-272).
T3 construct: whole, on cells
T3 sequence (looked up): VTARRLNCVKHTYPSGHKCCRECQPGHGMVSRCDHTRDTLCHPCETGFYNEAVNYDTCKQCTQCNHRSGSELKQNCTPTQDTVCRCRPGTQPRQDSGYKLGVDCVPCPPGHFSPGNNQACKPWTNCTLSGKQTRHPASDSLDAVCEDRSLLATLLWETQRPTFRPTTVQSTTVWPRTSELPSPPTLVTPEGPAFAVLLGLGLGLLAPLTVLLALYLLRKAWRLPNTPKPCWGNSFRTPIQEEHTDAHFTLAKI
The experiment in a line: flow cytometry on transfected HEK293 cells.

Test [4] concerns the target T4, human FAS expressed on transfected HEK293 cells (human, UniProt P25445 26-335).
T4 construct: whole, on cells
T4 sequence (looked up): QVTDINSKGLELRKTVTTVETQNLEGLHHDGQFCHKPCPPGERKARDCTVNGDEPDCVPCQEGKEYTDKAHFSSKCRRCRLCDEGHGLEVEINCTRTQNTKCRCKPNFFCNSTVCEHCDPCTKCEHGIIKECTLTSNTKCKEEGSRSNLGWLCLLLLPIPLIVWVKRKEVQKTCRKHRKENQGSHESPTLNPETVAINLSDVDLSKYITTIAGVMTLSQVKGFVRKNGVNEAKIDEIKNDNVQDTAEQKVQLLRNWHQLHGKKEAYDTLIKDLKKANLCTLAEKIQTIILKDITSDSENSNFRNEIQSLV
The experiment in a line: flow cytometry on transfected HEK293 cells.

Test [5] has as its target T5, human OX40 expressed on transfected HEK293 cells (human, UniProt P43489 29-277).
T5 construct: whole, on cells
T5 sequence (looked up): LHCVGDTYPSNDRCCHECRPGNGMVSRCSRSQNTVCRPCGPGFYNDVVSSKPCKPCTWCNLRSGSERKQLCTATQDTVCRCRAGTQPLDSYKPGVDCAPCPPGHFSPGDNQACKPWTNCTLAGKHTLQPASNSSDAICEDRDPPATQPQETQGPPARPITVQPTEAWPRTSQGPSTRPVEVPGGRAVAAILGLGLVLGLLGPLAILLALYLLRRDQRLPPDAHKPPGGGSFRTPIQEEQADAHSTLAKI
The experiment in a line: flow cytometry on transfected HEK293 cells.

Test [6] addresses T6, human CD40 expressed on transfected HEK293 cells (human, UniProt P25942 21-277).
T6 construct: whole, on cells
The experiment in a line: flow cytometry on transfected HEK293 cells.

The target of test [7] is T7, human TNFRSF1A expressed on transfected HEK293 cells (human, UniProt P19438 30-455).
T7 construct: whole, on cells
T7 sequence (looked up): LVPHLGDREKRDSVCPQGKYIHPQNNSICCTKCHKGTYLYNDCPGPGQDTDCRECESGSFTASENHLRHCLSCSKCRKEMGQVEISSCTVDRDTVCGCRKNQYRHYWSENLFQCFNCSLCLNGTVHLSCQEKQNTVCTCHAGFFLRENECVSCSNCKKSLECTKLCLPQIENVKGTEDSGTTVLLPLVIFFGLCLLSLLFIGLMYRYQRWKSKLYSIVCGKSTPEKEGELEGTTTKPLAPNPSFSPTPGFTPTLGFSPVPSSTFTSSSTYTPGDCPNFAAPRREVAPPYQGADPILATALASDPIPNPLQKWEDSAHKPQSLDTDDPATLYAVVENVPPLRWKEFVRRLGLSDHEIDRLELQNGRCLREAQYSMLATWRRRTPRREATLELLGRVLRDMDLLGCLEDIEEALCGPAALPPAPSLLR
The experiment in a line: flow cytometry on transfected HEK293 cells.

The target in test [8] is T8, murine FAS expressed on transfected HEK293 cells (murine, UniProt P25446 22-327).
T8 construct: whole, on cells
T8 sequence (looked up): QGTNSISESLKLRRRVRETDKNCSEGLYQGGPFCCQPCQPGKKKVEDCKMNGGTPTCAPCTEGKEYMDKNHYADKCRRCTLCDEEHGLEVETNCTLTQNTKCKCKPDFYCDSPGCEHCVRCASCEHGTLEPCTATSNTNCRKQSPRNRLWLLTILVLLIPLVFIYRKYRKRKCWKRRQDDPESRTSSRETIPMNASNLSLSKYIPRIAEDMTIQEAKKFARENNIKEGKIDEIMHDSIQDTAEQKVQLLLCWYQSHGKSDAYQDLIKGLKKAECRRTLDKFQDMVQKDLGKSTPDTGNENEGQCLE
The test is described as follows: flow cytometry on transfected HEK293 cells.

Test [9] deals with T9, murine CD27-FcHis fusion protein (murine, UniProt P41272 24-182, limits assumed).
T9 construct: Immobilized directly on the chip by amino coupling; also called mouse CD27; not shown: Fc and His tag
T9 sequence (looked up): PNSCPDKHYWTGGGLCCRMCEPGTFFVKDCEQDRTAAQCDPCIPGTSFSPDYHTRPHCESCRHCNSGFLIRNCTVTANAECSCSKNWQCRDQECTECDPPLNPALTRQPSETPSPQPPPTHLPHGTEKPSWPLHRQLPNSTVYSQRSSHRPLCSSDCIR
The experiment in a line: SPR (Biacore), murine CD27-FcHis immobilized, antibody as analyte. As for the experimental part: The affinity of the antibody binding to […] CD27 was also determined using SPR. In this experiment, the murine CD27-FcHis fusion protein was directly immobilized on a CMS chip (600 RU) by amino coupling. Antibodies at different concentrations (0.39, 0.78, 1.56, 3.13, 6.25, 12.5, 25, 50, 100 nM) were loaded at a flow rate of […] for 30 seconds with a dissociation time of 1800 seconds.
For orientation: In SPR one partner is held on a chip, and binding of the other changes the refractive index at the surface.

Substitutions are numbered along the chain they refer to.

T2 sequence (Q07011 24-255): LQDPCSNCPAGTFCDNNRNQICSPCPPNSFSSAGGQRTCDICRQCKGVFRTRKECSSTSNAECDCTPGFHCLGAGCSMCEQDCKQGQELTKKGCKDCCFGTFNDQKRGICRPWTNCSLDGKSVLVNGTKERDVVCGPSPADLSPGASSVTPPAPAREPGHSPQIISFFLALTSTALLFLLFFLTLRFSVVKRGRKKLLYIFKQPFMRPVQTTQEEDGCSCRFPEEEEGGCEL
T6 sequence (P25942 21-277): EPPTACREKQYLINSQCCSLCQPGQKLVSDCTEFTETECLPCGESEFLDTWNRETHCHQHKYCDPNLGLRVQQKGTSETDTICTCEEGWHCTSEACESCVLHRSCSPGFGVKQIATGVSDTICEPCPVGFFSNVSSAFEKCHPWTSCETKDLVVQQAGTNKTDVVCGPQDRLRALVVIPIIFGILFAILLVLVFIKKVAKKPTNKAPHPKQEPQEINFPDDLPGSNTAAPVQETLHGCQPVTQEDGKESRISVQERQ

B1: anti-CD27 antibody mAb076 (IgG1 form) (antibody, V domains shown)
VH: EVQLVESGGGLVQPGGSLRLSCAASGFTFSDYGIHWVRQAPGKGLEWIGWINPNRGSTNYAQKFQGRVTISRDNSKNTLYLQLNSLRAEDTAVYYCARDYGYTWYFDVWGQGTLVTVSS
VL: DIQLTQSPSSLSASVGDRVTITCRASQDISSVLAWYQQKPGKAPKLLIYAASSLQSGVPSRFSGSGSGTDFTLTISSLQPEDFATYYCQQRDAWPLTFGQGTKVEIK
notes: Human antibody from phage display
Take B1: the binding result in [1], in test [2], in [3], in test [4], in test [5] and in test [6] was “no binding (tested: 100 nM)” each time. Also, the binding result in test [7] is listed as “no binding (tested: 100 nM)”; in [8], “no binding (tested: 100 nM)”; in test [9] it was “binds”.

B2: anti-CD27 antibody mAb077 (IgG1 form) (antibody, V domains shown)
VH: B1 VH with D31G, N59K, Y100P
VL: B1 VL with V32D, S53T, L96P
notes: as for B1
Turning to B2, the binding result in test [1], in [2], in [3], in test [4], in [5] and in test [6] was “no binding (tested: 100 nM)” each time. Moreover, the binding result in test [7] is reported as “no binding (tested: 100 nM)”; in test [8], “no binding (tested: 100 nM)”; in test [9], “binds”.
